# What was measured:
# AncSZ = assay: phosphorylation enrichment, bacterial display (enrichment ratio); higher = better substrate or ligand; peptides without Tyr show the background
# EPHB1 = EPHB1 (UniProt P54762); assay: as above
# EPHB2 = EPHB2 (UniProt P29323); assay: as above
# FGFR1 = FGFR1 (UniProt P11362); assay: as above
# FGFR3 = FGFR3 (UniProt P22607); assay: as above
# Fer (mouse) = assay: as above
# Fes = Fes (UniProt P07332); assay: as above
# Fyn = Fyn (UniProt P06241); assay: as above
# Fyn, sequence (P06241 whole entry, looked up): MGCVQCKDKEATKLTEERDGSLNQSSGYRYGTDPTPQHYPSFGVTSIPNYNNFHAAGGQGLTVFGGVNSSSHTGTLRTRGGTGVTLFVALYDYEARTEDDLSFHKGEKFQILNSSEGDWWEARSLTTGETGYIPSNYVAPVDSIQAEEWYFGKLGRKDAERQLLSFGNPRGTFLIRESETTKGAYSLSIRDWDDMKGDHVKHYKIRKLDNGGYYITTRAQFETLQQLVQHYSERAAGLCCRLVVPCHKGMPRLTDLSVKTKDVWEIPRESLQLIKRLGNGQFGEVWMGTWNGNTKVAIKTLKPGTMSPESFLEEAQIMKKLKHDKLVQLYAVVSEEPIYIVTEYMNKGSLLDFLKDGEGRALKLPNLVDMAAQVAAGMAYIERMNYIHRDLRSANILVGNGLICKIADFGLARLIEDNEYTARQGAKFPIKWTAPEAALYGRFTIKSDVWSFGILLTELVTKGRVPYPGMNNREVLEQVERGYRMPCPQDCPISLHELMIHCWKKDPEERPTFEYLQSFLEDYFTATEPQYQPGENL
# Hck = Hck (UniProt P08631); assay: as above
# Jak2 = Jak2 (UniProt O60674); assay: as above
# MERTK = MERTK (UniProt Q12866); assay: as above
# MERTK, sequence (Q12866 whole entry, looked up): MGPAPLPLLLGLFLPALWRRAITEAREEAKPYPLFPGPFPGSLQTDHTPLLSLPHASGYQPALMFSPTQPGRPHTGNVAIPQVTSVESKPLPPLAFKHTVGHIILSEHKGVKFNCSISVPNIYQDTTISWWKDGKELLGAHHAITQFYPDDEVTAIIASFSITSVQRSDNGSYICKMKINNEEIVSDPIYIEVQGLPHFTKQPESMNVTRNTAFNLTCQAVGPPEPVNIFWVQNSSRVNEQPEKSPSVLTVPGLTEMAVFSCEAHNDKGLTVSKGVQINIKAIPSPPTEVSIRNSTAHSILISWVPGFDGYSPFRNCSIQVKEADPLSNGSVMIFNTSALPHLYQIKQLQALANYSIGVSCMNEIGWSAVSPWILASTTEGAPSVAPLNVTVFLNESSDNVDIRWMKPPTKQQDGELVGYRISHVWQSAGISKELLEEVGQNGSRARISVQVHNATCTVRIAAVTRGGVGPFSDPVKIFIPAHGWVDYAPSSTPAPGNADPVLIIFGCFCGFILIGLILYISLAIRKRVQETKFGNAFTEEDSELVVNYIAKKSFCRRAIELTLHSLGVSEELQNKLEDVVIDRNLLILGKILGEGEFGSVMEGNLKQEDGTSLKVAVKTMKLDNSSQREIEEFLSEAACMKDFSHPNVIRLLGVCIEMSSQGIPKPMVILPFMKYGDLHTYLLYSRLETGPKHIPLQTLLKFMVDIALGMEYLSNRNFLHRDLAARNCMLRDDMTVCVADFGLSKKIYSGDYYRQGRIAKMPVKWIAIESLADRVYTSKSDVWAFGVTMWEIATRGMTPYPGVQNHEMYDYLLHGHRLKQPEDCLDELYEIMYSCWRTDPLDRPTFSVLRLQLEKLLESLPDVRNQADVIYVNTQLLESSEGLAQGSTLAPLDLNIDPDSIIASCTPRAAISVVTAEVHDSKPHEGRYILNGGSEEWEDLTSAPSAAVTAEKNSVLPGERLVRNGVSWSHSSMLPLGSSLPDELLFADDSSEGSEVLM
# c-Abl (mouse) = assay: as above
# c-Src = assay: as above
# Grb2 SH2 = Grb2 SH2 (UniProt P62993); assay: SH2 binding enrichment of the phosphorylated peptide, bacterial display (enrichment ratio); higher = better substrate or ligand; peptides without Tyr show the background
# SHP2-C SH2 = assay: as above
# c-Src SH2 = assay: as above
# 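Throughout, for SH2 binding enrichment of the phosphorylated peptide, bacterial display: peptide library displayed on the E. coli surface as eCPX fusions, selected cells deep-sequenced, score is each peptide's frequency after selection divided by its frequency in the input.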
# 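Throughout, for phosphorylation enrichment, bacterial display: 11-residue human phosphosite peptides and single-mutation variants displayed on the E. coli surface, counted by deep sequencing, each peptide's frequency after selection divided by its frequency in the unselected input library; frequency after pTyr selection over input frequency; kinase dosed for 20-30% of maximal phosphorylation in three min.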
# FGFR3, sequence (P22607 whole entry, looked up): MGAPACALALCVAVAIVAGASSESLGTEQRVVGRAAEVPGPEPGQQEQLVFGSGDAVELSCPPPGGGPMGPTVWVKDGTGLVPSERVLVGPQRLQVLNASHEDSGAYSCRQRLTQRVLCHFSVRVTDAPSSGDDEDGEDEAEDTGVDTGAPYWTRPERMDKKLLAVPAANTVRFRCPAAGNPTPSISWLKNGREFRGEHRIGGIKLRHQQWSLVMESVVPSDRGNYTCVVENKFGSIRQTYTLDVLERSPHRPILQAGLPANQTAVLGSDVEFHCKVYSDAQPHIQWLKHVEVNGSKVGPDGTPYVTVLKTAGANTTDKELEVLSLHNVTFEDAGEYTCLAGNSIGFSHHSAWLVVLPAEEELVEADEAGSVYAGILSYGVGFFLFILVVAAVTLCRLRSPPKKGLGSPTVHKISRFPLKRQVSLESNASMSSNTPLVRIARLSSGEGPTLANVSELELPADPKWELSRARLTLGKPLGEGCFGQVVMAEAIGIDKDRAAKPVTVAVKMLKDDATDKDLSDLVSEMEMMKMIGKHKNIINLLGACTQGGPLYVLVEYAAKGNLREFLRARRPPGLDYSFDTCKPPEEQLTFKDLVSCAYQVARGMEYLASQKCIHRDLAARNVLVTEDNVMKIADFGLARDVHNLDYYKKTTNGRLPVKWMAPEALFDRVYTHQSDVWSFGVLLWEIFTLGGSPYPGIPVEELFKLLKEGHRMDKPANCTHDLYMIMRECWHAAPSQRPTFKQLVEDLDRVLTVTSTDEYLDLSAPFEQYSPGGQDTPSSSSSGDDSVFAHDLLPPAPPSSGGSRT
# Fes, sequence (P07332 whole entry, looked up): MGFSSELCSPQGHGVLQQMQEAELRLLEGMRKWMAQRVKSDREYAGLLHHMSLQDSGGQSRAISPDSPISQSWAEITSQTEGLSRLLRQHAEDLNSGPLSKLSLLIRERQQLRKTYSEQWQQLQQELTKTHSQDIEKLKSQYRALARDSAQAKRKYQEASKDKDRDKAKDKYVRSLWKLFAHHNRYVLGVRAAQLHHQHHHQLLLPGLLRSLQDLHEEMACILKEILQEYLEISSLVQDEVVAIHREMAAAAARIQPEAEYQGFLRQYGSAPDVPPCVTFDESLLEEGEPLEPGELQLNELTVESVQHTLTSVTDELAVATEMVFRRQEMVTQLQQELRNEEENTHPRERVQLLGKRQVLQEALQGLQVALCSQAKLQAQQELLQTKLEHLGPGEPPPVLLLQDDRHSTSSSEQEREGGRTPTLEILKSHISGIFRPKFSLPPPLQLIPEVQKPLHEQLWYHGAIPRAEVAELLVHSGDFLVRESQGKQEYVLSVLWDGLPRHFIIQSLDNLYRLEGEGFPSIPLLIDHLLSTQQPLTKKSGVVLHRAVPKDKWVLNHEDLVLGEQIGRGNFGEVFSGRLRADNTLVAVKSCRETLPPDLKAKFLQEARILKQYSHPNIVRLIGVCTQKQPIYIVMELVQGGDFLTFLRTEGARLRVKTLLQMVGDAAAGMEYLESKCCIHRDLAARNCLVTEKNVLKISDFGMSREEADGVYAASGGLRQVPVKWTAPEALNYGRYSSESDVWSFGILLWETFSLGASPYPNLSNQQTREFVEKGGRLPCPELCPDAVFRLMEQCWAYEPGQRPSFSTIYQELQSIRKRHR
# FGFR1, sequence (P11362 whole entry, looked up): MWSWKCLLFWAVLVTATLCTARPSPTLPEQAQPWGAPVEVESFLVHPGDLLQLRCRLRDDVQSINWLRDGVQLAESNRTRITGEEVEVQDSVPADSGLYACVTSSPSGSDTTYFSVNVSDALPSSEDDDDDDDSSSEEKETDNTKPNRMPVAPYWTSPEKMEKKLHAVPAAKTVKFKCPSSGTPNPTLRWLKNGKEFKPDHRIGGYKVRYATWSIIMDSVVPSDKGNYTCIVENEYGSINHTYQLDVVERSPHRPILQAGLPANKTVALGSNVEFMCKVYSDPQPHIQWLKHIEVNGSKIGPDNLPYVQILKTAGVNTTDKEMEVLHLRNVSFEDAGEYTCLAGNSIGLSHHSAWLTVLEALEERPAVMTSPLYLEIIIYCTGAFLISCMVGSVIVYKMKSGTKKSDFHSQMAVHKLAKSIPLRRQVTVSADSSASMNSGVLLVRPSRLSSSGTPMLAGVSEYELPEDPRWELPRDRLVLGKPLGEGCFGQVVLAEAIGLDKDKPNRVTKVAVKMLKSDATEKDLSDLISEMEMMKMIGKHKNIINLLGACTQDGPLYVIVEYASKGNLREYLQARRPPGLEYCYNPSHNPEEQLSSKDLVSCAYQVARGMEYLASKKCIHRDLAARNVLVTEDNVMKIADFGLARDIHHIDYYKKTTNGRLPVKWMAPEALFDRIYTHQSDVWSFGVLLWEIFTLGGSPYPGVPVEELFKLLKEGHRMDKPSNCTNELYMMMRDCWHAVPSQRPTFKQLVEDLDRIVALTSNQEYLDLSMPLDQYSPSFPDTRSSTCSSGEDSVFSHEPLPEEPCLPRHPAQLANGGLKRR
# EPHB1, sequence (P54762 whole entry, looked up): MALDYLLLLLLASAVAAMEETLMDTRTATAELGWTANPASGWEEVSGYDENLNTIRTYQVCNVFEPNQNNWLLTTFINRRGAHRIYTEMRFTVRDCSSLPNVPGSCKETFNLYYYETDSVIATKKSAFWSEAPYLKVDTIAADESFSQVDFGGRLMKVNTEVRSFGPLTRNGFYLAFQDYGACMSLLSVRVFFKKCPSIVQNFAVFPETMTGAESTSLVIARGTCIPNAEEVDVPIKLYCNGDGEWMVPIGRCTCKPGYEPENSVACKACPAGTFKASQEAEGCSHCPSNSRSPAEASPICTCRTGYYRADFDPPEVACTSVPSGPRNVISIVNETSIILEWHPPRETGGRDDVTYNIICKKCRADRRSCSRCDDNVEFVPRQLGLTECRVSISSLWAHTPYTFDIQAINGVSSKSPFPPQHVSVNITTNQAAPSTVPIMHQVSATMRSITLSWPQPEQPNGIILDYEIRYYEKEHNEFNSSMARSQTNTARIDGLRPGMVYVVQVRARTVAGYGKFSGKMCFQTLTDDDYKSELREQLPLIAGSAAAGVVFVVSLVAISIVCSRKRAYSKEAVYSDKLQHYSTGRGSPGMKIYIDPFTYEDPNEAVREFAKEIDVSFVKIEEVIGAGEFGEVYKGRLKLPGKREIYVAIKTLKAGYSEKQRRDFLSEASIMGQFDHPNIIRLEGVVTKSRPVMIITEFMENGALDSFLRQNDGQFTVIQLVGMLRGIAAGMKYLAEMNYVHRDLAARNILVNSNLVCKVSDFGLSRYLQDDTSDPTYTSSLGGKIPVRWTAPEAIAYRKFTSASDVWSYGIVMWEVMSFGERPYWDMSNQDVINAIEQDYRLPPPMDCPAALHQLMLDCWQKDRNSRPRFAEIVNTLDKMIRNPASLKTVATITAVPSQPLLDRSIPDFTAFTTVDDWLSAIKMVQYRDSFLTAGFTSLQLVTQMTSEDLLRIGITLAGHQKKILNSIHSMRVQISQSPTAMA
SH2 binding enrichment (Grb2 SH2),SH2 binding enrichment (SHP2-C SH2),SH2 binding enrichment (c-Src SH2),Sequence,phosphorylation enrichment (AncSZ),phosphorylation enrichment (EPHB1),phosphorylation enrichment (EPHB2),phosphorylation enrichment (FGFR1),phosphorylation enrichment (FGFR3),phosphorylation enrichment (Fer (mouse)),phosphorylation enrichment (Fes),phosphorylation enrichment (Fyn),phosphorylation enrichment (Hck),phosphorylation enrichment (Jak2),phosphorylation enrichment (MERTK),phosphorylation enrichment (c-Abl (mouse)),phosphorylation enrichment (c-Src)
0.85,5.59,1.12,PQDVTYARLHS [LILRB4_Y412_Q414R],0.757,0.808,0.797,0.774,0.603,0.786,1.51,1.91,4.33,0.518,0.735,0.842,2.3
0.816,0.599,0.567,CLRIDYERVSQ [DSP_Y1542_R1537C],1.23,1.48,1.03,0.574,1.04,0.674,1.57,0.524,0.631,1.38,0.475,0.96,0.517
0.627,0.494,0.473,SVTCTFSPALN [TP53_Y126_Y126F],2.01,0.845,0.675,0.602,1.03,0.673,1.89,0.562,0.621,1.74,0.515,1.19,0.541
0.715,0.526,0.522,LENSTYQYICV [CRB1_Y760_R764C],3.88,11.9,8.2,14.1,8.35,15.4,2.41,4.96,5.89,2.13,6.83,1.61,3.5
0.857,0.547,0.572,NQDRTYFERVR [SPEN_Y632_S635R_YF],0.607,0.473,0.411,0.421,0.522,0.401,0.648,0.419,0.812,0.601,0.377,0.538,0.567
0.626,0.531,0.382,FDDGKYVFVVT [RPS6KA3_Y488_YF],1.38,0.652,0.545,0.632,0.911,0.513,1.49,0.493,0.572,1.46,0.474,0.995,0.507
1.2,0.85,0.703,LERFIYNREEL [HLA-DPB1_Y59_F64L_YF],1.5,0.698,0.734,0.666,0.75,0.669,1.3,1.19,1.5,1.54,0.694,1.11,2.42
0.745,1.55,0.593,SGSIHYSHVPR [GLB1_Y57_R59H],0.681,0.426,0.451,0.451,0.518,0.606,0.79,0.35,0.451,0.6,0.425,0.658,0.383
0.712,0.64,0.561,QHNPEYVQQAS [LRRC7_Y1058],0.843,0.542,0.604,0.486,0.65,0.73,0.867,0.486,0.69,0.544,0.423,0.641,0.597
0.779,0.742,0.597,ERLWDYGMSSS [F8_Y1728],0.971,0.612,0.578,0.433,0.742,0.483,1.06,0.415,0.459,0.778,0.399,0.767,0.419
0.806,0.732,0.529,GEDLSYGDVPP [IRS1_Y151],1.22,0.624,0.534,0.588,0.84,0.709,1.28,0.639,0.556,0.995,0.463,0.765,0.482
0.82,0.722,1.66,GSERDYTYDEL [EIF2S2_Y174_E177D],1.14,0.504,0.879,0.507,0.614,0.617,1.01,0.59,0.849,0.999,0.424,0.803,0.766
0.893,0.568,0.573,VPVDGYISGLL [PAK6_Y81_M76V],0.911,0.75,0.85,0.568,0.656,0.559,1.01,0.519,0.542,1.18,0.602,0.745,0.657
0.772,0.73,0.586,PKGTGCIKTEL [STAT1_Y701_Y701C],1.05,0.774,0.54,0.558,0.759,0.726,1.27,0.443,0.689,0.808,0.74,1.04,0.457
1.23,0.914,0.586,KFGTNYRVGSS [CPO_Y278_YF],1.04,0.422,0.382,0.509,0.567,0.418,0.803,0.444,0.465,0.767,0.508,0.725,0.466
0.978,0.907,0.677,FLENFYDLEKD [MMP3_Y42_K45E_YF],1.33,0.531,0.546,0.504,0.679,0.433,1.34,4.33,1.39,1.21,0.516,0.764,2.23

SH2 binding enrichment (Grb2 SH2),SH2 binding enrichment (SHP2-C SH2),SH2 binding enrichment (c-Src SH2),Sequence,phosphorylation enrichment (AncSZ),phosphorylation enrichment (EPHB1),phosphorylation enrichment (EPHB2),phosphorylation enrichment (FGFR1),phosphorylation enrichment (FGFR3),phosphorylation enrichment (Fer (mouse)),phosphorylation enrichment (Fes),phosphorylation enrichment (Fyn),phosphorylation enrichment (Hck),phosphorylation enrichment (Jak2),phosphorylation enrichment (MERTK),phosphorylation enrichment (c-Abl (mouse)),phosphorylation enrichment (c-Src)
0.687,0.473,0.557,KFDLMYAKCAF [TUBA1A_Y399_R402C],1.27,0.72,0.723,0.491,0.841,0.68,1.35,0.567,0.677,1.25,0.624,1.06,0.598
1.8,0.573,0.59,RDLEQYVNNVN [PCDH19_Y1097],1.06,0.64,0.625,0.476,0.633,0.356,1.01,0.405,0.377,1.09,0.612,0.968,0.541
1.09,0.464,0.469,ARRMEYLASQK [FGFR2_Y616_G613R],0.461,0.947,0.558,0.372,0.437,0.293,0.557,0.367,0.333,0.367,0.402,0.286,0.382
0.9,0.787,0.484,LLANAYIYVVQ [L1CAM_Y418],1.29,0.847,0.69,0.679,1.01,0.588,1.52,0.645,0.687,1.43,0.516,0.983,0.602
0.808,0.862,0.9,HTEGEYSSLEH [IDH3B_Y171_Q166H],1.85,1.44,1.28,0.793,0.785,0.791,1.09,1.46,1.24,0.828,0.764,0.97,1.02
0.906,0.628,2.16,YEEDSYVTRSQ [RET_Y905_K907T],1.21,0.59,0.565,0.604,0.964,0.548,1.12,0.499,0.543,1.04,0.468,0.69,0.496
0.541,0.364,0.483,VKRNRYKDILP [PTPN12_Y64_K61R],0.65,0.575,0.695,0.463,0.47,0.49,0.561,0.689,0.579,0.528,0.553,0.514,0.628
1.09,0.481,0.375,SSSGGYGGGFG [KRT19_Y61_A60G_YF],0.48,0.341,0.346,0.32,0.477,0.358,0.593,0.355,0.35,0.499,0.398,0.512,0.356
0.86,0.732,0.613,LESILYESSVV [TRPV4_Y91_T89I],1.65,0.607,0.719,0.725,0.825,7.52,1.39,1.22,1.65,1.23,0.678,1.01,1.14
0.802,0.853,0.751,YKEQGYHRLPS [RIN1_Y681_P686S],0.531,0.245,0.366,0.485,0.485,0.363,0.508,0.366,0.279,0.763,0.413,0.455,0.439
0.746,0.545,3.65,HRDDGYMPMSP [IRS1_Y612_T608R],0.785,0.577,0.53,0.534,0.715,0.683,0.817,0.572,0.488,1.16,0.37,0.756,0.589
1.38,2.78,1.27,LFSINYLHFGE [KDM4C_Y201_YF],1.35,1.3,0.661,0.902,0.899,0.822,1.6,0.624,0.65,1.29,0.634,0.953,0.528
1.08,1.76,1.31,HSKGIYYVQLE [MGAT4B_Y262_Q257H],1.28,1.68,1.03,5.54,3.3,0.615,1.39,3.29,2.88,4.4,9.49,1.02,4.78
0.812,0.825,0.544,PDMHSYVVRYN [GRIN2D_Y732_M733V],1.13,0.787,0.723,0.56,0.844,0.434,1.13,0.554,0.721,1.04,0.413,0.694,0.603
0.828,0.547,0.385,VILARYGPAWR [CYP2D6_Y124_F120I],1.09,0.513,0.614,0.608,0.608,0.407,1.09,0.527,0.602,0.808,0.482,0.603,0.503

Sequence,SH2 binding enrichment (Grb2 SH2),SH2 binding enrichment (SHP2-C SH2),SH2 binding enrichment (c-Src SH2),phosphorylation enrichment (AncSZ),phosphorylation enrichment (EPHB1),phosphorylation enrichment (EPHB2),phosphorylation enrichment (FGFR1),phosphorylation enrichment (FGFR3),phosphorylation enrichment (Fer (mouse)),phosphorylation enrichment (Fes),phosphorylation enrichment (Fyn),phosphorylation enrichment (Hck),phosphorylation enrichment (Jak2),phosphorylation enrichment (MERTK),phosphorylation enrichment (c-Abl (mouse)),phosphorylation enrichment (c-Src)
PPPELYFVKVD [TERT_Y707],1.18,1.04,0.534,1.76,0.629,0.49,0.638,1.28,0.626,1.81,0.962,1.4,2.84,2.69,1.19,1.55
ESMLRYDVYGG [STOX1_Y607_E608D],0.996,0.62,0.723,0.96,0.646,1.08,0.482,0.705,0.462,0.972,1.04,1.3,0.704,0.918,0.529,1.29
